A short description of this series: yeast display, Sf9 membrane polyspecificity reagent, FACS + sequencing; frameworks hold sequencing errors. A digest of the protocol:
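Using colony PCR, genes from sorted yeast display clones were amplified, then sequenced on MiSeq at 2 × 250 and filtered by CDR length. The clones had been stained with 10% biotinylated, detergent-solubilized Sf9 membrane reagent for 1 hour at 4 °C and sorted by FACS into low and high (top ~1%) gates on anti-HA and streptavidin fluorescence. Polyreactivity labels come from the gate of origin.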
Turning to “QVQLVESGGGLVQAGGSLRLSSAASGSTFIGNAMGWYRQAPGTARELVAAITRSGGSTFYADSVKGRFTISRDNAKNTVYLQMNSLKPDDTAVYYCASKGNPYRVPCSSYPKVNYWGQGTQVTVSS”, the “polyreactivity (PSR sort gate)” value was “high polyreactivity”.
Turning to “QVQLVESGGGLVQAGGSLRLSSAASGSTFQLYAMRLYRQAPGKETELVAAISGIGDSTYYADSVKGGFTISRDNAKNTVYLQMNSLKPEDTAVYYCAREFSDGLSGKFDYWGQGTQVTGSS”, the “polyreactivity (PSR sort gate)” value is reported as “low polyreactivity”.
Regarding “QVQLVESGGGLVQAGGSLRLSSAASGSTFSDYAMGWYRQAPGKERELVAGITGGGGTYYADSVKGRFTISRDNAKNTVYLQMNSLKPEDTAVYYCAAGRRHGFGYWGQGTQVTVSS”, the “polyreactivity (PSR sort gate)” value is “low polyreactivity”.
On to “QVQLVESGGGLVQAGGSLRLSSAASGSTFTVNGMGWYSQAPGKERELVAAIDGGDGSTYYADSVKGRFTISRDNAKNTVYLQMTSLKPEDTAVYYCAADPPGFTQYGYWGQGTQVTVSS”, for which the “polyreactivity (PSR sort gate)” value was “low polyreactivity”.
As to “QVQLVESGGGLVQAGGSLRLSSAASGSTFWVNTMGWYRQAPGKERELVAGSTSNGGSTSYADSVKGRFTITRDNAKNTVYLQKNSLKPEDTAVYYCNADTYPDYWAYLYDYWGQGTQVTVSS”, the “polyreactivity (PSR sort gate)” value is “low polyreactivity”.
The result for “QVQLVESGGGLVQAGGSLRLSSAASGSTFYQYAMGWYRQAPGKERELVAAISWDSGSTYYADSVKGRFTISRDNAKNTVYLQMNSLKPEDTAVYYCAASWYGYYDGYAVEYDYWGQGTQVTVSS” reads “low polyreactivity”; that for “QVQLVESGGGLVQAGGSLRLSSAASGSTFYYNAMGWYRQAPGKEREFVAAITYTGGSTDYADSVKGRFTISRDNAKNTVYLQMNSLKPEDTAVYYCAKGTYGYISTWYDYWGQGTQVTVSS”, “low polyreactivity”.
Then “QVQLVESGGGLVQAGGSLRLSSAASGSTIVLYTMGWYRQAPGKEWELVAAITNGTRTYYADSVKGRFTISRDNAKNTVYLQMNSLKPQDTAVYYCAVDGVKRGADLFYYWGHGTQVTVSS”, with “high polyreactivity”.
Regarding “QVQLVESGGGLVQAGGSLRLSSAASGSTLQYNAMGWYRQAPGKERELVASITWSDGSTYYADSVKGRFTISRDNAKNTVYLQMNSLKPEDTAVYYCNRDDQPALWSSGGYNYWGQGTQVTVSS”, the “polyreactivity (PSR sort gate)” value is given as “high polyreactivity”.
Consider “QVQLVESGGGLVQAGGSLRLSSAASGSTLVYYDRGWYRQAPGKERELVATITGTDSTYYADSVKGRFTISRDNAKNTVYLQMNSLKPVDTADCAADRAASRPVYDYWGQGTQVTVSS”, for which the “polyreactivity (PSR sort gate)” value is “low polyreactivity”.
Then “QVQLVESGGGLVQAGGSLRLSSAASGSTSCPYAMGWYRQAPGKERELVATISWIGDRTYYADSVKGRFTISRDNAKNTFYLQMNSLKPEDTAVYYCNADYRGYANLEGDYWGQGTQVTVSS”, with “low polyreactivity”; and “QVQLVESGGGLVQAGGSLRLSSAASGYIFDLNAMGRYRQAPGKERELVAAISTGGGTYYADSVKGRFTISRDNAKNTVYLQMNSLKPEDTAVYYCAADWGYWYAEYDYWGQGTLVTVSS”, with “low polyreactivity”; and “QVQLVESGGGLVQAGGSLRLSSAASGYTYYVYAMGWYRQAPGKERELVAAISGGSNTYYADSVKGRFTISRDNAKNTVYLQMNSRKPEDTAVFYCAKSSTTYRQRARYDYWGLGTQVTVSS”, with “high polyreactivity”.
The result for “QVQLVESGGGLVQAGGSLRLSSAATGRTFPSNAMGWYRQAPGKERELVAAISVSSGRTYYADSVKGRFTISRDNAKNTVYLLMNSLKPEDTAVYYCAALWARYPYLFGFDYWGQGTQVTVSS” reads “high polyreactivity”; that for “QVQLVESGGGLVQAGGSLRLSSAAYGSIFTYNAMGWYRQAPGKERELVDTISWRGGSTYYADSVKGRFTISRDNAKNTVYLQMNSLKPEDTAVYYCDKSWRGRYDYWGQGTQVTVSS”, “high polyreactivity”.
The result for “QVQLVESGGGLVQAGGSLRLSSAGSGFTFYKNAMGWYRQAPGKERELVAAITSSGGSTYYADSVKGRFTISRDNEKNTVYLQMNSLKPEDTAVYYCNKVYSKHYGYWGQGSQVTVSS” reads “high polyreactivity”.
“QVQLVESGGGLVQAGGSLRLSSAPSGFTFDENAMGWYRQAPGINYSGASTYYADSVKGRFTISRDNAKNTVYLQMNSLKPEDTAVYYCAAEVVAQMNYWGQGTQVTVSS”: the “polyreactivity (PSR sort gate)” value is “low polyreactivity”.
As to “QVQLVESGGGLVQAGGSLRLSSASSGSTFWIYAMGWYRQAPGKEREMVASIRRACNTYADSVKGRFTISRDNAKNTVYLQMNSLKPEDTAVYYCNARLYLPYGYRRSNGYESDYWGQGTQVTVSS”, the “polyreactivity (PSR sort gate)” value is “high polyreactivity”.
Then “QVQLVESGGGLVQAGGSLRLSWAASGFTFTSYTMGWYTPAPGKERELVAAISNTGGSTYYADSVKGRFTISRDNAKNTVYLQMNSLKPEDTAVYYCAARTHTYGKFWRYYWGQGTQVTVSS”, with “low polyreactivity”; and “QVQLVESGGGLVQAGGSLRLSWAASGITFRKNAMGWYRQAPGKERQLVATITRRGGSTFYADSVKGRFTISRDNANNTVYLQFKSLKPVDSAVYYFAADYATRDGDYESWGQGTQVTVSS”, with “high polyreactivity”.
The result for “QVQLVESGGGLVQAGGSLRLSWAASGLIFYDNMGWYRQAPGKERELVASISSSGGSTSYADSVKGRFTISRDNAKNTVYLQMNSLKPEDTAVYYCAAVRRGYKYVYWGQGTQVTVSS” reads “low polyreactivity”; that for “QVQLVESGGGLVQAGGSLRLSWAASGLIFYWYAMGWYRQAPGKERELVAAINRGGSTYYADSVKGRFTISRDNAKNTVYLQMNSLKPEDTAVYYCAAGGYRGRKRFGWDYTYNYWGQGTQVTVSS”, “low polyreactivity”.
The result for “QVQLVESGGGLVQAGGSLRLSWAASGLTFTHNAMGWYRQAHGKERELVAAISRRGGSTYYADSVKGRFTISRDNAKNTVYLQRNSLKPEDTAVYYCNAPVKVRATTNWEYDYWGQGTEVTVSS” reads “high polyreactivity”; that for “QVQLVESGGGLVQAGGSLRLSWAASGNIFLYYAMGWYRQAPGKERELVPDIDSSGASTYYADSVKGRFTISRDNAKNTVYLQMNSLKPEDTAVYYCAAEFHWWYAGDDYGYWGQGTQVTVSS”, “low polyreactivity”; that for “QVQLVESGGGLVQAGGSLRLSWAASGSFFKRNAMGSYRQAPGKEREFVAAITYNGGSTYYADSVKGRFTISRDNAMTTVYLQMNSLKPEDTAVYDCNNLYSRAQFRGGDYWAQGTQVTVSS”, “high polyreactivity”.
As to “QVQLVESGGGLVQAGGSLRLSWAASGSIFQDYAMGWYRQAPGKERDLVAAISSSGTSTYYADSVKGRCTISRDNAKNTVSLQMNSLQPEDTAVFYCAAPPGRVARYDYWGQGTQVTVSS”, the “polyreactivity (PSR sort gate)” value is “low polyreactivity”.
The result for “QVQLVESGGGLVQAGGSLRLSWAASGSIFSIYAMGWYRQAPGKERDLVASITRSSGRTYYAYSVKGRFTISRDNAKNNVYLQMNSLKPEDTAVYYCAKDYIPLALDADDYCGQGTQVTVSS” reads “low polyreactivity”; that for “QVQLVESGGGLVQAGGSLRLSWAASGSIFYWNAMGWYRQAPGKERELVATITITTSTNYADSVKGRFTISRDNAKNTVYLQMNSLKPEDTAVYYCNAGAPYRYLDEYNYWGQGTQVTVSS”, “low polyreactivity”.
Take “QVQLVESGGGLVQAGGSLRLSWAASGSILLGYAMGWYRQAPGKERELVAAISRNGGSTYYADSVKGRFTISRDNAKNTVYLQMNSLKPEDTAVYYCNKYSGYKGTDGGDYWGQGTQVTVSS”: the “polyreactivity (PSR sort gate)” value is recorded as “low polyreactivity”.
With “QVQLVESGGGLVQAGGSLRLSWAASGYTFGKNAMGWYRQAPGKERELVAAISRSGGSTFYADSVKGRFTISRDNAKNTVYLQMNSLKPEDTAVYYCAAESYGYSAPYDYWGQGTQVTVSS”, the “polyreactivity (PSR sort gate)” value is “high polyreactivity”.
The result for “QVQLVESGGGLVQAGGSLRLSYAASGSIFGRYVMGWYRQAPGKERELVAAIKRSGGRTYYADSVKGRFTISRDNAKNTVYLQMNSLKPEDTAVYYCATYTGYSASKEVPYDYWGQGTQVTVSS” reads “high polyreactivity”; that for “QVQLVESGGGLVQAGGSLRLTCAASAFIFHFNAMGWYRQAPGKERELVAAISRTGGTTYYADSVKGRFTISRDNAKNTVYLQMNSLKPEDTAVYYCAAYSKYGQHYDYWGQGTQVTVSS”, “high polyreactivity”.
The result for “QVQLVESGGGLVQAGGSLRLTCAASGFIFDTYAMGWYRQAPGKERELVAAISWTGTDTYYADSVKGRFTISRDNAKNTVYLQMNSLKPEDTAVYYCAARSRYKYSPSGDYWGQGTQVTVSS” reads “high polyreactivity”; that for “QVQLVESGGGLVQAGGSLRLTCAASGFIFPNNAMGWYRQAPGKESELVAAISYSGGSTNYADSVKARFTISRDNAKNTVYLQMNSLKPEDTAVYYCAKADPAYLWGLREYDYWGQGTQVTVSS”, “low polyreactivity”; that for “QVQLVESGGGLVQAGGSLRLTCAASGFIFYYYTIGWYRQAPGKERELVAAIRTDGNTYYADSVKGRFTISRDNAKNTVYFQMNSLKPEDTAVYYCAAKIPRPYAMDYWGQGTQVTVSS”, “low polyreactivity”.
The result for “QVQLVESGGGLVQAGGSLRLTCAASGFIYADNAMGWDRQAPGQERELVAAISGSGGGTYYADSVKGRFTISRDNAKNTVYLQMNSLKPEDTAVYYCAKSQYHRFDYWGQGTQVTVSS” reads “low polyreactivity”.
Regarding “QVQLVESGGGLVQAGGSLRLTCAASGFTFHNYAMGWYRQAPGKERELVAVIRWRGGSTYYADSVKGRFTISRDNAKNTVYLQMNSLKPEDTAVYYCAKRARGSYYWGYNYWGQGTQVTVSS”, the “polyreactivity (PSR sort gate)” value is listed as “high polyreactivity”.
The result for “QVQLVESGGGLVQAGGSLRLTCAASGFTFHSYAMGWYRQSPGTERELVAAISARGGSTYYADSVKGRLTISRDNAKNTVYLQMNSLKPEDTAFYYCAAYSYQVRFYYWGQGTQVTVSS” reads “high polyreactivity”; that for “QVQLVESGGGLVQAGGSLRLTCAASGFTFRRYAMGCYRKAPGKERLLVAAISYSGGITYYADSVKGRFTISRDNAKNTVYLHMNSLKAEDTAVYYCAADYFAPYKTYDYWGQGTQVTVSS”, “high polyreactivity”; that for “QVQLVESGGGLVQAGGSLRLTCAASGGILYYNAMGWYRQAPGKEREVVAAISRSGITYYADSVKGRFTISRDNAKNTVYLQMNSLKPEDTAVYYSNTVPWRRWGYDYWGQGTQVTVSS”, “high polyreactivity”.
The result for “QVQLVESGGGLVQAGGSLRLTCAASGGTFQYYSMGWYRQAPGKERELVAAITTSGGSTYYADSVKGRFTISRDNAKNTDYLQMNSLKPEDTAVYYCAAGRGYRGYVRYYYWGQGTQVTVSS” reads “high polyreactivity”.
